Assay results: publication PMC4285774
Read-outs that look alike come from different tables or passages of the source.

Columns and labels:
Assay in all cases: fluorescence anisotropy
Prp2 [1] = biological target: T1, Prp2 (UniProt P20095 1-876)
T1 sequence: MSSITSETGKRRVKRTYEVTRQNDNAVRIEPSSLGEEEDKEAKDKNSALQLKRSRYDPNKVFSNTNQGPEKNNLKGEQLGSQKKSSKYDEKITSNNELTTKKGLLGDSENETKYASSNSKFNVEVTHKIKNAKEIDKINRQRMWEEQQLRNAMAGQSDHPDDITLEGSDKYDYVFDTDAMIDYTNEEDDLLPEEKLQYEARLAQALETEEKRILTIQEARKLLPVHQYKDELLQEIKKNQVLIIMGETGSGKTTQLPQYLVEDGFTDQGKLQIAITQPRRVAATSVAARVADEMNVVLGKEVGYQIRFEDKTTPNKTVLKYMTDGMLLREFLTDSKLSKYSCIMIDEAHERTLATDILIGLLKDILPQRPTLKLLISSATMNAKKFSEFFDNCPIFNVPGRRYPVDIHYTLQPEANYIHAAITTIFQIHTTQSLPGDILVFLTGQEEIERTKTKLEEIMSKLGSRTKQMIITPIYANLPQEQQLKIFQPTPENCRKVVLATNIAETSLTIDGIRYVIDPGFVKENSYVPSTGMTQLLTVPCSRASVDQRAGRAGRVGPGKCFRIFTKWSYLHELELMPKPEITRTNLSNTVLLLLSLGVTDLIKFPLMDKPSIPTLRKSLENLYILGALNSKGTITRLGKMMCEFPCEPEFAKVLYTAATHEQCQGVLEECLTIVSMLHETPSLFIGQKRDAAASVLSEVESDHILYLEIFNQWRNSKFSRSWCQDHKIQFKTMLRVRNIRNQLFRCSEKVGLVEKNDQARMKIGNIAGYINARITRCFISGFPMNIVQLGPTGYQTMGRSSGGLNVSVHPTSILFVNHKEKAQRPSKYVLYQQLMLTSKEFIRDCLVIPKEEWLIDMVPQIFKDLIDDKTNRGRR

Prp2 [2] = biological target: T1, Prp2; remark: listed apart in the source
Prp2;Spp2 = biological target: T2, Prp2;Spp2 (Saccharomyces cerevisiae?;Saccharomyces …, UniProt P20095;Q02521 1-876;36-185, |)
T2 sequence 1: T1 sequence
T2 sequence 2: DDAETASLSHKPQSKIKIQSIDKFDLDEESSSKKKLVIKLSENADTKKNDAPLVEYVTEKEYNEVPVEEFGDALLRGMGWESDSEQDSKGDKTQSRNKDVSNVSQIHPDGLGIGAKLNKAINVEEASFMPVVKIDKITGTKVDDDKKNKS

Spp2 = biological target: T3, Spp2 (UniProt Q02521 36-185)
T3 sequence: T2 sequence 2

GGCCGCGAGAAAAAAAAAAAAAAA (ssRNA) [24-nt ssRNA] was tested, and the Kd (Prp2 [1]) was 53 ± 5 nM, the Kd (Prp2 [2]) was 70 ± 11 nM and the binding result (Prp2;Spp2) was “binds”. GGCCGCGAGAAAAAAAAAAAAAAA (ssRNA) [24-nt ssRNA]: no binding (Spp2).
